# Measured values from patent US7888291B2, “Substrates and assays for β-secretase” (Elan Pharmaceuticals, Inc., priority 2000, dated 2011).
# Entries after “also recorded” stand apart in the source; their conditions may differ. Marks after values point to notes of the source that are not given here. Non-standard residues stand in square brackets, D forms with d. No end group written: not given here. Nle = CCCC[C@H](N)C(=O)O; SO3‑ = not defined here
# Tests used:
# Assay type in all cases: biochemical
# [1] = molecular target: T1, Hu-Asp2 (Homo sapiens, UniProt P56817); experiment: Hu-Asp2 peptide substrate cleavage assay (HPLC quantitation of cleavage products); set-up: key to Activity: Those substrates that were not cleaved by the Hu-Asp2 are indicated by a “−” sign; substrates that produced activity are indicated by “+” signs in which the greater the activity, the more + signs are provided; ++: substrates that produced activity are indicated by “+” signs in which the greater the activity, the more + signs are provided; ++++: substrates that produced activity are indicated by “+” signs in which the greater the activity, the more + signs are provided; settings: for Activity: 200 μM test substrate, 210 nM Hu-Asp2 enzyme, pH 4.5, 37° C., 3 hours
# T1 construct: made in house; host or cells: High Five insect cells
# Procedure: The peptides listed in Table 2 were designed, synthesized, and tested for activity as substrates for Hu-Asp2. 200 μM of each test substrate was incubated with 210 nM Hu-Asp2 enzyme at pH 4.5 at 37° C. for 3 hours. Of course it should be understood that these are merely exemplary assay conditions, and those of skill in the art will be able to vary these conditions and yet still provide appropriate Hu-Asp2 activity. For example, it is envisioned that the assays may be conducted at a pH range of from between about 4.0 to about 7.0. The amount of enzyme added to a given reaction mixture may also be varied and those of skill in the art will be able to perform assays defining the optimal enzyme concentrations necessary for a given assay, as such 150 nm; 200 nm; 250 nm; 300 nm or more or less enzyme may be added. Substrate concentration in those also may be varied such that an assay may use 100, 150 μM, 200 μM, 250 μM, 300 μM, 350 μM or more or less of any given; substrate. It may be that one substrate produces an optimum activity at one concentration whereas another substrate is needed to be present at a different concentration to produce an optimum cleavage rate. However, such optimizations of enzyme assay conditions is well within the skill of those in the art and will not require undue experimentation.
# In an exemplary assay to determine the cleavage of the substrates of the present invention, Asp2 was prepared from High Five™ insect cells. Generally, the assasy are run in solution at acidic pH (4.0 to 5.0), at 25-37° C. in the presence of nM or sub-nanomolar enzyme. After a suitable period of incubation the reaction is stopped at a desired time by addition of 4% trifluoracetic acid (TFA). Substrates and products are separated using reverse phase HPLC. The disappearance of the substrates and the appearance of the products are monitored by continuous measurement of the absorbance of the effluent at […]. Furthermore, if the peptide comprises a tryptophan residue, the monitoring may additionally or alternatively involve continuous monitoring of fluorescence of tryptophan fluorescence (excitation at 280 nm, emission at […]) of the effluent.
# In a typical assay, 210 nM enzyme and 200 μM substrate were incubated in 0.2 M sodium acetate at pH 4.5 in 100 μl volume at 37° C. for 1 to 3 hours. The assay was stopped by the addition of 50 μl 4% TFA to lower the pH below the active range of the enzyme. Subsequently, 100 μl of this mixture was injected into a Hewlett Packard Model 1090 HPLC equipped with a Vydac column (4.6 mm i.d.×150 mm, 5 μm) pre-equilibrated with 95% A (0.15% TFA in water), 5% B (0.15% TFA in acetonitrile). The constituents were then eluted from the column with the following linear gradients: 0-15 min: 5-50% B; 15-17 min: 50-100% B; 17-20 min: 100-5% B; 20-22 min: 5% B). The cleavage products were then quantitated using an enhanced integrator. […]
# [2] = molecular target: T1, Hu-Asp2; experiment: as above; settings: for activity / rate of hydrolysis by Asp2 over wild type peptide (SEQ ID NO:20): Tables 3 and 4
# [3] = molecular target: Hu-Asp (Homo sapiens, UniProt P56817); experiment: Hu-Asp cleavage assay variation for substrates of SEQ ID NO:190 and 191 (Vmax, Km, pH, ionic strength, DMSO); set-up: made in house; host or cells: High Five insect cells; settings: 100 mM NaOAc/HOAc, pH 4.5 (stated for SEQ ID NO:190 and 191)
# Procedure: In the substrates SEISY-EVEFRWKK (SEQ ID NO:190) and GLTNIKTEEISEISY-EVEFRWKK (SEQ ID NO:191), the 10 N-terminal amino acids of peptide SEISY-EVEFRWKK (SEQ ID NO:190) are identical to those of peptide SEISY-EVEFR (SEQ ID NO:152). The difference between the two peptide is the presence of a tryptophan and two lysines in the peptide of SEQ ID NO:190. […] Hu-Asp activity was tested towards SEISY-EVEFRWKK (SEQ ID NO:190) and GLTNIKTEEISEISY-EVEFRWKK (SEQ ID NO:191). […] The activity difference between the two peptides was particularly dramatic in the pH range 4.0-4.6. Specifically, it was 6.3-4.8 times higher for the peptide of SEQ ID NO:191. […] Both peptides were inhibited by increasing concentrations of DMSO. […] As expected, the N-terminus elongation increases activity. […] The development of the substrates of SEQ ID NO:190 and SEQ ID NO:191 is of great value in Hu-Asp inhibition studies and in studies concerning recombinant Hu-Asp refolding from E. coli inclusion bodies.
# In a variation of the above assay for substrates of SEQ ID NO:190 or its N-terminally extended version depicted in SEQ ID NO:191), the substrates are incubated with the enzyme to a final reaction solution volume of 200 μl (although reaction mixtures of 50-100 μl also were used) composed of 5-50 μM peptide substrate, 1-10 nM enzyme, 0.1. M sodium acetate buffer at pH 4 to 5. […]
# [4] = Table 3, 200 nM enzyme, 200 μM substrate, 300 mM Na-acetate, 4% DMSO, pH 4.5, 37° C., 4 hr, APP-Sw = 100
# [5] = Table 5, 2 nM enzyme, 50 μM substrate, 25 mM Sodium acetate, pH 4.4, 37° C., 2 hr
# [6] = Table 5, 2 nM enzyme, 50 μM substrate, 25 mM Sodium acetate, pH 4.4, 37° C., 2 hr, SEQ ID NO:141 = 100
# [7] = Table 4, 200 nM enzyme, 200 μM substrate, pH 4.5, 37° C., 1 hr, SEQ ID NO:19 = 100
# T1 sequence (P56817 46-501): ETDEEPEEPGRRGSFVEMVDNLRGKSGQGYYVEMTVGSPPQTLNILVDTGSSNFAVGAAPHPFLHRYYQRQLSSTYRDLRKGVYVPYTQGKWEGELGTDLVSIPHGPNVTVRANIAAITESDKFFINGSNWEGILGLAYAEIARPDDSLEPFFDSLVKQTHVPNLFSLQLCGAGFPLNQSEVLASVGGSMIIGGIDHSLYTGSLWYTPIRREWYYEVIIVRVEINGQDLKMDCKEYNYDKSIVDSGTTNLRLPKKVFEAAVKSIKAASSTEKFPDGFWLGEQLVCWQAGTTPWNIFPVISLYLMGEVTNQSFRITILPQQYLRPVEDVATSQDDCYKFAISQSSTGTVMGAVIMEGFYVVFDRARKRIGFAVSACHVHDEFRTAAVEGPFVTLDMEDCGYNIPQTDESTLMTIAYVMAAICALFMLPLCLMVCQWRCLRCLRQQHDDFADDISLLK
# Hu-Asp, sequence (P56817 46-501): as above
substance,measurement,setting,value
KVEANY-LVEGERKK (KVEANYLVEGERKK),Activity,[1],+
KTINL-↓-EVEPS (KTINLEVEPS) [Peptide 2],activity as substrate of Hu-Asp2 (in words),[1],activity similar to that of the Swedish mutant
same,Relative rate of Cleavage,[2]; [4],92.0
SEISY-EVEFR (SEISYEVEFR),rate of cleavage / activity over SEVSY-EVEFR (SEQ ID NO:141),[2],5 fold
same,Cleavage Activity,[2]; [5],0.80 µmol/min/mg
same,Relative rate of Cleavage,[2]; [6],500
TEVSY-EVEFR (TEVSYEVEFR),Cleavage Activity,[2]; [5],0.27 µmol/min/mg
same,Relative rate of Cleavage,[2]; [6],160
SEVSY-↓-DAEFR (SEVSYDAEFR),activity compared with Swedish mutant peptide (SEQ ID NO:19),[2]; Table 4,about five times less than that of the Swedish mutation
same,Relative rate of Cleavage,[2]; [7],18.3
same,activity / rate of hydrolysis by Asp2 over wild type peptide (SEQ ID NO:20),[2],about 9 fold
KTISL- ↓-DVEPS (KTISLDVEPS) [Peptide 6],activity as percentage of the Swedish mutation peptide (SEQ ID NO:19),[2]; Table 3,69%
same,Relative rate of Cleavage,[2]; [4],69.0
same,activity / rate of hydrolysis by Asp2 over wild type peptide (SEQ ID NO:20),[2],about 35 fold
VEALY-LVEGER (VEALYLVEGER),activity as substrate of Hu-Asp2 (in words),[1],found to be cleaved by the Hu-Asp2
SEIDY-EVEFR (SEIDYEVEFR),Cleavage Activity,[2]; [5],0.69 µmol/min/mg
same,Relative rate of Cleavage,[2]; [6],430
"GLTNIKTEEISEISYEVEFRWKK [SEQ ID NO:191, GLTNIKTEEISEISY-EVEFRWKK]",Km,[3],43.1 µM
KTINnle-↓-EVDPS (KTIN[Nle]EVDPS) [Peptide 4],activity as substrate of Hu-Asp2 (in words),[1],very well tolerated
same,Relative rate of Cleavage,[2]; [4],93.6
KVEANY-DVEGERKK (KVEANYDVEGERKK),Activity,[1],+
"SEVKM-DAEFR (SEVKMDAEFR) [APP-Wildtype, reference compound]",Relative rate of Cleavage,"[2]; Table 3, 200 nM enzyme, 200 μM substrate, 300 mM Na-acetate, 4% DMSO, pH 4.5, 37° C., 24 hr reaction",2.1*
same,Relative rate of Cleavage,"[2]; Table 4, 200 nM enzyme, 200 μM substrate, pH 4.5, 37° C., 24 hr reaction",2.1*
KVEANY-AVEGERKK (KVEANYAVEGERKK),Activity,[1],++++
"SEVNL-DAEFR (SEVNLDAEFR) [APP-Sw, reference compound]",Relative rate of Cleavage,[2]; [4],100
same,Relative rate of Cleavage,[2]; [7],100.0
SEVDY-EVEFR (SEVDYEVEFR),Cleavage Activity,[2]; [5],0.38 µmol/min/mg
same,Relative rate of Cleavage,[2]; [6],240
KTINnle-↓-EVEPS (KTIN[Nle]EVEPS) [Peptide 3],activity as substrate of Hu-Asp2 (in words),[1],activity similar to that of the Swedish mutation
same,Relative rate of Cleavage,[2]; [4],92.6
KTEEISEVSY-EVEFR (KTEEISEVSYEVEFR),rate of cleavage / activity over SEVSY-EVEFR (SEQ ID NO:141),[2],3.6 fold
same,Cleavage Activity,[2]; [5],0.58 µmol/min/mg
same,Relative rate of Cleavage,[2]; [6],360
Biotin-KVEANY-EVEGERC(oregon green)KK,cleavage site,[1],between Tyr and Glu only
same,Vmax and Km compared with a previous biotinylated fluorescent substrate derived from the Swedish Mutant peptide,[2],at least twice better; also recorded: at least double
same,cleavage after 15 minutes,"[2]; 200 mM sodium acetate, pH 4.5, 10 μM substrate, 50 nM enzyme, 37° C., 15 minutes",20%
same,cleavage after 30 minutes,"[2]; 200 mM sodium acetate, pH 4.5, 10 μM substrate, 50 nM enzyme, 37° C., 30 minutes",37%
same,cleavage after 60 minutes,"[2]; 200 mM sodium acetate, pH 4.5, 10 μM substrate, 50 nM enzyme, 37° C., 60 minutes",57%
same,cleavage after 120 minutes,"[2]; 200 mM sodium acetate, pH 4.5, 10 μM substrate, 50 nM enzyme, 37° C., 120 minutes",82%
KTITL-↓-EVEPS (KTITLEVEPS) [Ubiquitin (Pep 1)],activity as percentage of the Swedish mutation peptide (SEQ ID NO:19),[2]; Table 3,about 13%
same,Relative rate of Cleavage,[2]; [4],13.1
same,activity / rate of hydrolysis by Asp2 over wild type peptide (SEQ ID NO:20),[2],six times better than wild type peptide
KVEANY-EVEGERKK (KVEANYEVEGERKK),activity as substrate of Hu-Asp2 (in words),[1],good substrate for Hu-Asp
same,Activity,[1],++++
TRPGSGLTNIKTEEISEVSY-EVEFR (TRPGSGLTNIKTEEISEVSYEVEFR),rate of cleavage / activity over SEVSY-EVEFR (SEQ ID NO:141),[2],8.4 fold
same,Cleavage Activity,[2]; [5],1.35 µmol/min/mg
same,Relative rate of Cleavage,[2]; [6],840
KTINnle-↓-DVDPS (KTIN[Nle]DVDPS) [Peptide 5],reduction of activity compared with peptide #3 (SEQ ID NO:134),[2]; Table 3,about 10 fold
same,Relative rate of Cleavage,[2]; [4],12.2
SEVSY-↓-EAEFR (SEVSYEAEFR),activity as substrate of Hu-Asp2 (in words),[1],activity comparable to the Swedish mutation; also recorded: activity comparable to that of the Swedish mutant
same,Relative rate of Cleavage,[2]; [7],77.1
KVEANY-EVEGERCKK (KVEANYEVEGERCKK),activity as substrate of Hu-Asp2 (in words),[1],good substrate for Hu-Asp2
WRRVEALY-LVEGERK (WRRVEALYLVEGERK),Activity,[1],++
KTISL- ↓-DVDPS (KTISLDVDPS) [Peptide 7],activity as substrate of Hu-Asp2 (in words),[1],activity dropped substantially
same,Relative rate of Cleavage,[2]; [4],20.5
SEVNY-↓-EVEFR (SEVNYEVEFR),activity as fraction of that of SEVSY-EVEFR (SEQ ID NO:141),[2]; peptide activity assays,⅕
KVEALY-AVEGERKK (KVEALYAVEGERKK),Activity,[1],+
KVEANL-AVEGERKK (KVEANLAVEGERKK),Activity,[1],+
TEVDY-EVEFR (TEVDYEVEFR),Cleavage Activity,[2]; [5],0.37 µmol/min/mg
same,Relative rate of Cleavage,[2]; [6],230
"KVEALY-LV(SO3-)GER (KVEALYLV[SO3‑]GER; reading uncertain; also: sulfonated residue, parent residue not given here, printed as KVEALY-LV(SO3-)GER)",Activity,[1],−
TEIDY-EVEFR (TEIDYEVEFR),Cleavage Activity,[2]; [5],0.62 µmol/min/mg
same,Relative rate of Cleavage,[2]; [6],390
